According to the supplement of paper PMC9732359:
± gives the uncertainty stated by the source.

Test: protein stability index of a GFP-peptide fusion (yeast GPS) (PSI 1-4); higher = more stable; sorted into four equal gates, so the index is relative within each strain
Procedure, shortened: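 Sequencing reads from sorted gates were used to score each peptide. The library consisted of tiled 17-residue yeast protein peptides fused downstream of GFP on a Cherry-expressing plasmid, pooled and carried in yeast. Mid-log cultures in leucine-free medium were split into four equal gates by GFP/Cherry ratio, and each gate's plasmids were PCR-amplified and Illumina-sequenced. The protein stability index adds up, over all gates, the read frequency multiplied by the gate number.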

Sequence | protein stability index (doa10∆) | protein stability index (pdr5∆) | protein stability index (ubr1∆) | protein stability index (san1∆)
EDEGEERESSGAKDAEK [RPC17] | 2.93 ± 0.18 | 3.38 ± 0.28 | 3.65 ± 0.16 | –
QKESDAKNETNSESDSK [ITC1] | 2.94 ± 0.044 | 3.03 ± 0.046 | 2.85 ± 0.043 | 3.02 ± 0.045
LLKQYPKDSSSTFREWK [YJR042W/NUP85] | 2.54 ± 0.045 | 2.6 ± 0.048 | 2.81 ± 0.042 | 2.71 ± 0.038
VTYSRVSKKVDVRRLKK [BRN1] | – | 1.32 ± 0.14 | 3.23 ± 0.15 | –
QELEKRMPMDFKGVIVK [PRE1] | 1.77 ± 0.18 | – | 1.81 ± 0.071 | 2.8 ± 0.12
GLTQLYKKSTENESTNY [MED7] | 3.08 ± 0.081 | 2.84 ± 0.081 | 2.96 ± 0.05 | 2.56 ± 0.1
LVALLSRDLWCFSINDD [SSN2] | 2.1 ± 0.076 | 1.71 ± 0.08 | 2.69 ± 0.098 | 2.5 ± 0.098
EKVRPTPGEVASKAIVQ [MCD1] | 3.16 ± 0.14 | 2.42 ± 0.084 | 2.84 ± 0.25 | 1.55 ± 0.29
ADVLYKTAFKPHELTES [QCR2] | 3.11 ± 0.062 | 3.17 ± 0.059 | 3.15 ± 0.045 | 2.98 ± 0.051
DMANEIILSIDEHHESF [RRP6] | 3.01 ± 0.068 | 2.98 ± 0.093 | 2.9 ± 0.049 | 2.95 ± 0.062
GISINNMMEHWDYLQLT [RPO31] | 2.84 ± 0.087 | 2.81 ± 0.073 | 2.65 ± 0.065 | 2.8 ± 0.14
PNGHISTKKIQVATKYA [YMR129W/POM152] | 1.86 ± 0.082 | 2.24 ± 0.05 | 2 ± 0.043 | 1.75 ± 0.067
EIPETGEYSVKLLKGAT [FAS2] | 3.18 ± 0.12 | 3.46 ± 0.089 | 3.35 ± 0.078 | 3.32 ± 0.049
DATTWRYSMSEQFPFYL [IRR1] | 3.09 ± 0.098 | 2.94 ± 0.066 | 3.07 ± 0.049 | 3.06 ± 0.063
NPLWNAIIVAGVQSNGD [PRE4] | 1.25 ± 0.054 | 1.37 ± 0.044 | 1.89 ± 0.04 | 1.53 ± 0.075
FAFLNAMFFGNYGSSLQ [AAR2] | 2.9 ± 0.064 | 2.5 ± 0.075 | 2.56 ± 0.069 | 2.91 ± 0.072
GARVFGALKGASDGGLY [RPL5] | – | 3.34 ± 0.17 | 3.11 ± 0.19 | –
RSMIEHARTAAVTHNLY [PUP2] | 2.16 ± 0.13 | 2.98 ± 0.22 | 2.67 ± 0.083 | 2.46 ± 0.13
ADPVALYLGLKRGEVVK [RPB5] | 1.67 ± 0.24 | 1.6 ± 0.15 | 1.37 ± 0.13 | 1.32 ± 0.14
KRELKRAQEEVKRIQSV [RPT3] | 3.23 ± 0.096 | 3.39 ± 0.14 | 3.38 ± 0.083 | 2.91 ± 0.096
GAKGSTLIVVPFNQGSK [FAS2] | 2.1 ± 0.095 | 2.48 ± 0.088 | 1.85 ± 0.073 | 2.18 ± 0.14
KYPLGHFVRDLGTIESA [DIS3] | 2.56 ± 0.097 | 2.43 ± 0.1 | 2.58 ± 0.19 | 2.85 ± 0.15
TIVQLCKKKEMSQYQST [YIL149C/MLP2] | 1.88 ± 0.063 | 2.14 ± 0.061 | 1.8 ± 0.052 | 1.76 ± 0.091
DPVEGNLEFDSTNHPDY [SRP14] | 2.9 ± 0.066 | 2.79 ± 0.068 | 2.95 ± 0.051 | 3.09 ± 0.049
NSKVNKLNIETMRKISS [DSN1] | 2.5 ± 0.17 | 2.43 ± 0.11 | 2.95 ± 0.07 | 2.13 ± 0.12
FDVNTLCLMTWKEVMFD [CDC53] | 2.61 ± 0.096 | 2.59 ± 0.065 | 2.85 ± 0.068 | 2.81 ± 0.11
EEELFQEMIEISNVIKP [SRP54] | 3.04 ± 0.077 | 3.28 ± 0.066 | 3.37 ± 0.13 | 3.34 ± 0.064

Sequence | protein stability index (doa10∆) | protein stability index (pdr5∆) | protein stability index (ubr1∆) | protein stability index (san1∆)
LIGAATKFKGGKRQLMK [SEC65] | 1.64 ± 0.1 | 2.03 ± 0.084 | 1.93 ± 0.14 | 2.14 ± 0.11
KLYVSHIQVNQAPKQRR [RPL17A] | 1.89 ± 0.079 | 1.92 ± 0.068 | 2.08 ± 0.11 | 2.02 ± 0.14
FSKILPAALDGLMKSYK [ESC2] | 2.71 ± 0.059 | 2.28 ± 0.069 | 2.54 ± 0.056 | 2.73 ± 0.051
ISLLALPHSPLWELALA [YML031W/NDC1] | 1.35 ± 0.086 | 1.49 ± 0.061 | 1.7 ± 0.042 | 1.34 ± 0.11
AGSGSTFIYGYCDKNFR [PRE3] | 1.24 ± 0.085 | 1.42 ± 0.057 | 1.49 ± 0.059 | 1.51 ± 0.099
LKENTYVMERPKNVPTS [YDL116W/NUP84] | 1.81 ± 0.1 | 2.13 ± 0.12 | 2.96 ± 0.093 | 2.79 ± 0.15
TGPIEPKARQELPTQLA [RRP46] | 2.82 ± 0.072 | 2.79 ± 0.074 | 3.04 ± 0.056 | 3.21 ± 0.089
MSSQISSLIPHCITSIT [MTR3] | 1.77 ± 0.061 | 2.08 ± 0.061 | 2.47 ± 0.075 | 2.07 ± 0.073
EKSQEVEYVDPTVNRVP [RPN7] | – | – | 3.74 ± 0.27 | –
YSTANEYIIAAIRKAPH [RPN3] | 2.82 ± 0.061 | 2.64 ± 0.052 | 2.62 ± 0.047 | 2.62 ± 0.042
RGKDCTVVISQKKVPDK [SCL1] | 2.59 ± 0.086 | 2.83 ± 0.076 | 2.71 ± 0.051 | 2.83 ± 0.074
KGSVAAKTFLEKRWNDE [PRE8] | 2.38 ± 0.18 | 1.28 ± 0.17 | – | –
GNPLLYDGVERVSLQDI [QCR2] | 1.73 ± 0.23 | 2.18 ± 0.17 | 2.19 ± 0.17 | 2.03 ± 0.17
ISTVIEVNREEAIGFIR [SMC3] | 2.93 ± 0.21 | 2.65 ± 0.11 | 2.57 ± 0.088 | 2.86 ± 0.16
FNTQQGIKKHSLWRRTV [YDL116W/NUP84] | 2.6 ± 0.049 | 2.76 ± 0.043 | 2.49 ± 0.031 | 2.77 ± 0.048
MMTGAEQDPYSNASQMG [RPB3] | 2.68 ± 0.14 | 2.44 ± 0.13 | 2.92 ± 0.1 | 2.21 ± 0.2
PIMLRSKNCYLSEATES [RPB2] | 1.23 ± 0.075 | 1.46 ± 0.11 | 1.14 ± 0.061 | 1.1 ± 0.15
MIDAVFEQDSHLRYQPD [SNF6] | 3.09 ± 0.076 | 3.19 ± 0.065 | 3.19 ± 0.054 | 3.15 ± 0.041
RYANKRFRKAQCPIIER [RPS5] | 2.34 ± 0.16 | 2.12 ± 0.14 | 1.5 ± 0.054 | –
DEFPELKEPVEDIIKRT [NUT2] | 3.5 ± 0.066 | 3.36 ± 0.07 | 3.36 ± 0.048 | 3.31 ± 0.045
LLKGPASTVAKTAPIQE [YOR098C/NUP1] | 2.52 ± 0.1 | 2.46 ± 0.094 | 2.87 ± 0.071 | 1.91 ± 0.18
EDTELYQELIKNGALVS [YJL039C/NUP192] | – | 2.77 ± 0.087 | 2.57 ± 0.069 | 3.21 ± 0.11
QYNIPPEREVLVRELYQ [RRP6] | 2.52 ± 0.061 | 2.15 ± 0.089 | 2.17 ± 0.083 | 2.37 ± 0.14
LIQKGYLQRGDDGESYA [CDC53] | 3.68 ± 0.15 | 2.68 ± 0.1 | 3.12 ± 0.066 | 3.34 ± 0.065
YDRQLSSLFLDGLEKAA [FAS2] | 2.96 ± 0.084 | 2.93 ± 0.074 | 2.95 ± 0.079 | 2.79 ± 0.095
SAAATPSLNKTINGKVN [GAL11] | 2.9 ± 0.06 | 3.14 ± 0.041 | 3.01 ± 0.046 | 2.81 ± 0.042
